Consider seven molecules from PMC8216289 (Nucleic Acids Research, 2021).

Like-named read-outs stand apart in the source and are kept apart here.

The target in data set [1] is zinc uptake regulator (Zur) from Xanthomonas campestris pv. campestris (XcZur) (Xanthomonas campestris pv. campestris strain 8004). As to the kind of experiment: AUC.
For data set [2] the target is unchanged. As to the kind of experiment: AUC. The source holds these as a separate data set.
The data set “crystal structure” concerns the molecule itself. Briefly: crystal structure.
For data set [3], the target named is T1, XcZur (Xanthomonas campestris pv. campestris …, UniProt Q4UWS5 1-172).
T1 sequence: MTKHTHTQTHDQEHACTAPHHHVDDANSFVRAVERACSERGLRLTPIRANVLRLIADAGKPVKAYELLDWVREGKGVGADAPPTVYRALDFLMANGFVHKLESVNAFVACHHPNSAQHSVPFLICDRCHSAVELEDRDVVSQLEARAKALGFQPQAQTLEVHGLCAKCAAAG
Briefly: BLI.

The target of data set [4] is T1, XcZur. As to the kind of experiment: EMSA. On the technique in general: A gel shift assay detects complexes by their altered migration in electrophoresis.
The target in data set [5] is T1, XcZur. As to the kind of experiment: EMSA. This is another data set of the same source.

In data set [1], “zinc uptake regulator (Zur) from Xanthomonas campestris pv. campestris (XcZur) (natural protein)” came in with a percent as dimers of 32.9%, a percent as monomers of 60.5%, a percent as trimers of 5.8% and a stoichiometry N of 2. Also, in data set [2], the percent as dimers was 60.3%, the percent as monomers turned out to be 28.9%, the percent as tetramers stood at 4.9% and the stoichiometry N is 2.

B1: N-terminal extension deleted XcZur (T17-G172) (domain or fragment)
chain: TAPHHHVDDANSFVRAVERACSERGLRLTPIRANVLRLIADAGKPVKAYELLDWVREGKGVGADAPPTVYRALDFLMANGFVHKLESVNAFVACHHPNSAQHSVPFLICDRCHSAVELEDRDVVSQLEARAKALGFQPQAQTLEVHGLCAKCAAAG
Turning to B1, the binding result in the data set “crystal structure” is “binds”.

B2: P2472-Biotin (dsDNA)
DNA 1: AAGTGTTATAAAGTAACACTAGTCGCG
DNA 2: CGCGACTAGTGTTACTTTATAACACTT
B2: the Kd with XcZur [3] was ~38 nM.

B3: EcZur-box (dsDNA)
DNA 1: AGAAGTGTGATATTATAACATTTCATGACTATG
DNA 2: CATAGTCATGAAATGTTATAATATCACACTTCT
For the molecule B3, the binding result in the data set with XcZur [4] was “binds”.

B4: P3788-Biotin (dsDNA)
DNA 1: ATTGATACGTTATCACATTGCGCCCCGCGCT
DNA 2: AGCGCGGGGCGCAATGTGATAACGTATCAAT
As for B4, the Kd with XcZur [3] was ~63 nM.

B5: P0267-Biotin (dsDNA)
DNA 1: GGCGAGTTGTTATACAGTAACATTTCTAG
DNA 2: CTAGAAATGTTACTGTATAACAACTCGCC
As to B5, in the data set with XcZur [3], the Kd is ~22 nM.

B6: P2976 (dsDNA)
DNA 1: TTAGGGCCACGCGGTTGCGGAGACTATTACACCGGCGCGTGATGAGATCACATCACGTG
DNA 2: CACGTGATGTGATCTCATCACGCGCCGGTGTAATAGTCTCCGCAACCGCGTGGCCCTAA
With B6, the binding result in the data set with XcZur [5] is given as “no binding”.

The term stoichiometry N denotes a count of units in the complex or per binding partner. As usually defined, the Kd is the free concentration of one partner at which half of the binding sites on the other are occupied at equilibrium, for simple one-to-one binding. A low value points to tighter binding.
